Data set [1] addresses T1, HDAC9a-FLAG (Homo sapiens, UniProt Q9UKV0). The following applies: FLUOR DE LYS substrate; TSA 1 μM (FIG. 7), preincubated 15 minutes at room temperature; SAHA concentration not given.
The next data set deals with HDAC9-FLAG (Homo sapiens, UniProt Q9UKV0). The following applies: FLUOR DE LYS substrate; TSA 1 μM (FIG. 7), preincubated 15 minutes at room temperature; SAHA concentration not given.
In data set [2] the target is T1, HDAC9a-FLAG. The experiment in a line: HDAC enzymatic assay, 3H-acetic acid released from 3H-histones. More on the design: made in house; host or cells: human kidney 293T cells, transient transfection, anti-FLAG M2 agarose immunoprecipitation, elution with FLAG peptide. It counts as biochemical. The conditions noted are these: 3H-histones substrate; SAHA 2 μM (FIG. 8); preincubated 30 minutes at 4° C. As to the method: The reaction was stopped by the addition of 1M HCl/0.1 acetic acid. Released ^3H-acetic acid was extracted with ethyl acetate and quantified by scintillation counting. For inhibition studies, the immunoprecipitated complexes were preincubated with the different HDAC inhibitors for 30 minutes at 4° C.

In data set [3] the test system is MEF2C mediated transcriptional activation. Description: p3XMEF2-luciferase reporter assay in 293T cells. It counts as cell-based, human. The conditions noted are these: p3XMEF2-Luc; for repression of MEF2C mediated transcriptional activation: 1 ng, 10 ng, or 100 ng of plasmid; for MEF2C mediated transcriptional activation at the 100 ng dose: 100 ng plasmid. As to the method: It was then determined whether HDAC9 and HDAC9a repress MEF2-mediated transcription. This determination was carried out as follows. The p3XMEF2-luciferase reporter gene (100 ng) and the vector pRL-TK (Promega) (5 ng) were co-transfected into 293T cells in the absence (pcDNA3 empty vector) or presence of MEF2C (100 ng of pCMV-MEF2C). HDAC9-F (1 ng, 10 ng, or 100 ng of pFLAG-HDAC9; pFLAG-HDAC9 and HDAC9-FLAG are different constructs, with the FLAG sequence located at opposite ends of the HDAC9 nucleotide, but are functionally equivalent) or HDAC9a-F (1 ng, 10 ng, or 100 ng of pFLAG-HDAC9a; pFLAG-HDAC9a and HDAC9a-FLAG are different constructs, with the FLAG sequence located at opposite ends of the HDAC9a nucleotide, but are functionally equivalent) was included in a subset of experimental groups with the MEF2C vector. pFLAG empty vector was used to adjust the DNA to an equal amount in each transfection. The cells were harvested 24 to 36 hours after transfection and the luciferase activities were measured using the Dual-Luciferase™ Reporter Assay System from Promega according to the manufacturer's instruction. The firefly luciferase activity was first normalized to the co-transfected Renilla luciferase activity (encoded by the pRL-TK vector), and the luciferase activity value for cells transfected with MEF2C alone was set at 1. MEF2C activated transcription over 30 times the basal level of transcription. […] The transcriptional repression effect of HDAC9 and HDAC9a on MEF2C mediated transcription was a specific effect since a co-transfected reporter gene for transfection efficiency containing a TK promoter was not repressed by HDAC9 or HDAC9a.
(In general: In a reporter assay the amount or activity of a reporter protein is the signal.)

The nature of data set [4]: HDAC enzymatic activity of immunoprecipitated HDAC9/HDAC9a compared with HDAC4. The conditions noted are these: comparable amount of protein; immunoprecipitated from 293T cells. It counts as biochemical.
The next data set deals with MEF2. Description: Anti-FLAG immunoprecipitation and anti-MEF2 Western blot. It counts as binding, human. The conditions noted are these: 293T cells, anti-FLAG IP, anti-MEF2 Western. The method, then:
The Xenopus homolog of HDRP, MITR, was identified as a MEF2 interacting transcriptional repressor (Sparrow et al., EMBO J. 18:5085-5098(1999)) and mouse HDRP also interacts with and represses MEF2 mediated transcription (Zhang et al., J. Biol. Chem. 276:35-39 (2001)). […] 293 cells were transfected with vector, HDAC9-FLAG, or HDAC9a-FLAG. […] Western blot analysis of the immunoprecipitated proteins was carried out, using anti-MEF-2 antibody to probe the blot.

The text below walks through data of patent publication US7816499B2, “Antibodies that selectively bind HDAC9” (Sloan-Kettering Institute for Cancer Research, priority 2001, dated 2010).

Experimental for HDAC9-FLAG: Cells were harvested 24 to 48 hours after transfection and lysed in IP lysis buffer (50 mM Tris HCl, pH 7.5/120 mM NaCl/5 mM EDTA/0.5% NP-40) at 5×10^7 cells per ml. Immunoprecipitation with anti-FLAG M2-agarose (Sigma, St. Louis, Mo.) was performed according to the manufacturer's instructions. Immunoprecipitated proteins were released from the agarose beads by using FLAG-peptide and either used directly for HDAC enzymatic activity assays or resolved on SDS/PAGE for Western blot analyses.
HDAC9 and HDAC9a enzymatic activity were assessed with the HDAC Fluorescent Activity Assay/Drug Discovery Kit-AK-500 (BIOMOL Research Laboratories) using a FLUOR DE LYS™ that contains an acetylated lysine side chain as a substrate and immunoprecipitated HDAC9-FLAG and HDAC9a-FLAG polypeptides according to the manufacturer's instruction and a SPECTRAmax® GEMINI XS microplate spectrofluorometer using the SOFTmax® PRO system (Molecular Devices) at excitation 355 nm and emission 460 nm with a cut off filter of 455 nm. Briefly, HDAC9-FLAG and HDAC9a-FLAG were incubated with the substrate overnight at room temperature in a 96-well plate. The reaction was stopped by addition of Fluor De Lys™ Developer and samples were read with the fluorometer. […]

As to `O=C(CCCCCCC(=O)Nc1ccccc1)NO` [SAHA, suberoylanilide hydroxamic acid], on HDAC9a-FLAG [1], the “inhibition of HDAC9a deacetylase activity” value is reported as “completely inhibited”. The “inhibition of HDAC9 deacetylase activity” value against HDAC9-FLAG is “completely inhibited”. Further, at HDAC9a-FLAG [2], the “inhibition of histone deacetylase activity of HDAC9a-FLAG” value is recorded as “completely inhibited”.

B1: HDAC9: novel class II histone deacetylase, 1011 amino acids (SEQ ID NO: 2); tested as FLAG-tagged protein (protein, listed as Homo sapiens)
chain: MHSMISSVDVKSEVPVGLEPISPLDLRTDLRMMMPVVDPVVREKQLQQELLLIQQQQQIQKQLLIAEFQKQHENLTRQHQAQLQEHIKELLAIKQQQELLEKEQKLEQQRQEQEVERHRREQQLPPLRGKDRGRERAVASTEVKQKLQEFLLSKSATKDTPTNGKNHSVSRHPKLWYTAAHHTSLDQSSPPLSGTSPSYKYTLPGAQDAKDDFPLRKTASEPNLKVRSRLKQKVAERRSSPLLRRKDGNVVTSFKKRMFEVTESSVSSSSPGSGPSSPNNGPTGSVTENETSVLPPTPHAEQMVSQQRILIHEDSMNLLSLYTSPSLPNITLGLPAVPSQLNASNSLKEKQKCETQTLRQGVPLPGQYGGSIPASSSHPHVTLEGKPPNSSHQALLQHLLLKEQMRQQKLLVAGGVPLHPQSPLATKERISPGIRGTHKLPRHRPLNRTQSAPLPQSTLAQLVIQQQHQQFLEKQKQYQQQIHMNKLLSKSIEQLKQPGSHLEEAEEELQGDQAMQEDRAPSSGNSTRSDSSACVDDTLGQVGAVKVKEEPVDSDEDAQIQEMESGEQAAFMQQPFLEPTHTRALSVRQAPLAAVGMDGLEKHRLVSRTHSSPAASVLPHPAMDRPLQPGSATGIAYDPLMLKHQCVCGNSTTHPEHAGRIQSIWSRLQETGLLNKCERIQGRKASLEEIQLVHSEHHSLLYGTNPLDGQKLDPRILLGDDSQKFFSSLPCGGLGVDSDTIWNELHSSGAARMAVGCVIELASKVASGELKNGFAVVRPPGHHAEESTAMGFCFFNSVAITAKYLRDQLNISKILIVDLDVHHGNGTQQAFYADPSILYISLHRYDEGNFFPGSGAPNEVGTGLGEGYNINIAWTGGLDPPMGDVEYLEAFRTIVKPVAKEFDPDMVLVSAGFDALEGHTPPLGGYKVTAKCFGHLTKQLMTLADGRVVLALEGGHDLTAICDASEACVNALLGNELEPLAEDILHQSPNMNAVISLQKIIEIQSMSLKFS
modifications: FLAG tag
notes: tested as FLAG-tagged protein
On to B1, for which, in data set [3], the “repression of MEF2C mediated transcriptional activation” value was “in a dose-dependent manner” and the “MEF2C mediated transcriptional activation at the 100 ng dose” value was “completely abolished”. For the same molecule, in data set [4], the “HDAC activity relative to the deacetylase activity of HDAC4” value was “about ten times lower”. Besides, the “interaction with MEF2” value in the data set on MEF2 was “interacted with MEF2”.

B2: HDAC9a: alternatively spliced isoform of HDAC9, 879 amino acids (SEQ ID NO: 4); tested as FLAG-tagged protein (protein, listed as Homo sapiens)
chain: MHSMISSVDVKSEVPVGLEPISPLDLRTDLRMMMPVVDPVVREKQLQQELLLIQQQQQIQKQLLIAEFQKQHENLTRQHQAQLQEHIKELLAIKQQQELLEKEQKLEQQRQEQEVERHRREQQLPPLRGKDRGRERAVASTEVKQKLQEFLLSKSATKDTPTNGKNHSVSRHPKLWYTAAHHTSLDQSSPPLSGTSPSYKYTLPGAQDAKDDFPLRKTASEPNLKVRSRLKQKVAERRSSPLLRRKDGNVVTSFKKRMFEVTESSVSSSSPGSGPSSPNNGPTGSVTENETSVLPPTPHAEQMVSQQRILIHEDSMNLLSLYTSPSLPNITLGLPAVPSQLNASNSLKEKQKCETQTLRQGVPLPGQYGGSIPASSSHPHVTLEGKPPNSSHQALLQHLLLKEQMRQQKLLVAGGVPLHPQSPLATKERISPGIRGTHKLPRHRPLNRTQSAPLPQSTLAQLVIQQQHQQFLEKQKQYQQQIHMNKLLSKSIEQLKQPGSHLEEAEEELQGDQAMQEDRAPSSGNSTRSDSSACVDDTLGQVGAVKVKEEPVDSDEDAQIQEMESGEQAAFMQQPFLEPTHTRALSVRQAPLAAVGMDGLEKHRLVSRTHSSPAASVLPHPAMDRPLQPGSATGIAYDPLMLKHQCVCGNSTTHPEHAGRIQSIWSRLQETGLLNKCERIQGRKASLEEIQLVHSEHHSLLYGTNPLDGQKLDPRILLGDDSQKFFSSLPCGGLGVDSDTIWNELHSSGAARMAVGCVIELASKVASGELKNGFAVVRPPGHHAEESTAMGFCFFNSVAITAKYLRDQLNISKILIVDLDVHHGNGTQQAFYADPSILYISLHRYDEGNFFPGSGAPNEVRFISLEPHFYLYLSGNCIA
modifications: FLAG tag
notes: tested as FLAG-tagged protein
With B2, in data set [3], the “repression of MEF2C mediated transcriptional activation” value is reported as “in a dose-dependent manner” and the “MEF2C mediated transcriptional activation at the 100 ng dose” value is “completely abolished”. In addition, the “HDAC activity relative to the deacetylase activity of HDAC4” value in data set [4] is reported as “about ten times lower”. In the data set on MEF2, the “interaction with MEF2” value was “interacted with MEF2”.
